The assay has as its target HLA-A*02 (human). Briefly: UV-ligand exchange, anti-b2m ELISA; grade: exchange yield >=50%. A general note: An ELISA detects its analyte on a solid surface through an enzyme-linked reagent.

The text below walks through data of patent US20160250307A1.

In turn, SLTSEIHFL […] registered a peptide exchange yield of 50 to 75%.
